This series has as its target interleukin-6 (IL-6) (UniProt P05231 30-212). In words: electrochemical aptasensor (DPV, [Fe(CN)6]3-/4- vs poly-methylene blue); aptamer immobilised on CS/MWCNT/pMB electrode, BSA blocked; 30 min incubation; linear 0.001-1000 ng/mL, LOD 0.54 pg/mL (not a Kd); 1 uM aptamer for immobilisation, IL-6 incubated 30 min with stirring; binding buffer, salt, pH and temperature not given in the material. Conditions: protein: commercial; hairpin (stated).

We go through one molecule from paper PMC11506342, “Ratiometric Electrochemical Detection of Interleukin-6 Using Electropolymerized Methylene Blue and a Multi-Walled Carbon-Nanotube-Modified Screen-Printed Carbon Electrode”.

interleukin-6 (IL-6), sequence (P05231 30-212): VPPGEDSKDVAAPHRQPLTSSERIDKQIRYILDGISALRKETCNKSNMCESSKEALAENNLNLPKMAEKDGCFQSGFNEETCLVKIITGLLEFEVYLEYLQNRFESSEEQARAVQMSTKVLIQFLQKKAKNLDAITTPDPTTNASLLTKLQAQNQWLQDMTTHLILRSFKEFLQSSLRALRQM

GGTGGCAGGAGGACTATTTATTTGCTTTTCT (ssDNA, 3'-NH2) [IL-6 aptamer (NH2-Apt)]: the binding result is “binds”.
